Test: yeast display, Sf9 membrane polyspecificity reagent, FACS + sequencing; frameworks hold sequencing errors
How it was run: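 Nanobodies came from a synthetic yeast display library in Saccharomyces cerevisiae BJ5465, induced with galactose for 36–48 hours and stained for 1 hour at 4 °C with 10% biotinylated, detergent-solubilized Sf9 membrane reagent. Cells were enriched on streptavidin microbeads and then FACS-sorted, with low and high (top ~1%) gates set on anti-HA fluorescence for expression and streptavidin fluorescence for reagent binding. Each polyreactivity label reflects the gate a clone came from. Genes were amplified by colony PCR, sequenced by MiSeq 2 × 250 and filtered by CDR length.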

Sequence | polyreactivity (PSR sort gate)
QVQLVESGGGLVQAGGSLRLSCPASGRTFHYYTLGWYRQSPGKERELVARISLGVGSTYYADSVKGRFTISRDIAKNTVDLQMNSLKPEDTAVYYCNAVWYKSVVKGVYGRVDWGQGTQVTVSS | low polyreactivity
QVQLVESGGGLVQAGGSLRLSCPASGRTFKYYAMGCYRQSPGKESELVAAITSTGGSTYYADSVKGRFTISRDNAMNTVYLQMNSLKPEDTAVYYCNRYTQYRDRSDNHWGQGTQVTVSS | high polyreactivity
QVQLVESGGGLVQAGGSLRLSCPASGRTFYKYAMGWYRQAPGKEREFVADISSRGGSTYYADSVKGRFTISRDNAKNTVYLQMNSLKPEDTAVYYCAKRDRAAARAYYYWGQGTQVTVSS | high polyreactivity
QVQLVESGGGLVQAGGSLRLSCPASGRTYASYAMGWYRQAPGKDRELVAAITSSGGSTYYADSVKGRFTISRDNAKNTVYLQMNSLKPEYTAVYYCAARSRYRGDSWGQGTQVTVSS | high polyreactivity
QVQLVESGGGLVQAGGSLRLSCPASGSIFQYYAMGWYRQAPGKERELVAAISSGGRTNYADSVKGRFTISRDNAKNTVYLQMNSLKPEATAVYYCAAARYYYQVYRWEYDYWGQGTQVTVSS | high polyreactivity
QVQLVESGGGLVQAGGSLRLSCPASGSIFRGYGMGWSRQAPGKERELVAAMSSSGGTYYADSVKGRFTISRDNAKKTVYLQMNSLKPEDTAVYYCNARVRTQQRWVDYWGQGTQVTVSS | high polyreactivity
QVQLVESGGGLVQAGGSLRLSCPASGSIIYTNDMGWYRQEPGKEREMVAAISYGGTTTYADSVKGRFTISRDNAKNTVYLQMNSLKPEDTAVYYCNADWLYYGYWGYGHIWYDFWGQGTQVTVSS | low polyreactivity
QVQLVESGGGLVQAGGSLRLSCPASGSTIPVNAMVWYRQAPGKERELVAAIRSSTGRTYYADSVKGRFTTSRDNAKNTVYLQMNSLKPEDTAVYYCAADYRYNRGITSNKDYDYWGQGTQVTVSS | low polyreactivity
QVQLVESGGGLVQAGGSLRLSCPATGFTFSVYVMAWYRLAPGKERELVAAISSGGDTTYADSVKGRFTISRDNAKNTVYLQMNSLKPEDTAVYYCAAYRVILYYLYDYWGQGTQVTVSS | low polyreactivity
QVQLVESGGGLVQAGGSLRLSCPAYGSIFEGHGMGWYRQAPGKEREMVAAITFRSGSTYYADSVKWRFTISRDNAKNTVYLQINSLKPDDTAVYYCAADEYYQVSAYDYWGQGTQVTVSS | low polyreactivity
QVQLVESGGGLVQAGGSLRLSCPAYGSIFIGNAMGWYRQAPGKERELVAVISKGGGRTYYADSVKGRFTISRDNAKNTVYLQMNSLKPEDTAVYYCNTRNPDSGDYWGQGTQVTVSS | high polyreactivity
QVQLVESGGGLVQAGGSLRLSCPDSGRIFFLYAMGWYRQAPGKERELVAAITKSGGSTYADSVKGRFTISRDNAKNTVFLQMNSLIPEDTAVYYCAADLFTDLYDSWGQGTQVTVSS | low polyreactivity
QVQLVESGGGLVQAGGSLRLSCSASGFIFSRYVMGWYRKAPGKEREFVAVISYRGGSTYYADSVKGRFTFSRDNAKNTVYLQMNSLKPEDTAVYYCNADTIPDGEDRYDYWGQGTQVTVSS | low polyreactivity
QVQLVESGGGLVQAGGSLRLSCSASGFTFNYNAMGWYRQAPGKERELVASITRSGGRTYYADSVKGRFTISRDNAKITVYLQMNSLKPEDTAVYYCAAEVWYSLSYRVYGGYDFWGQGTQVTVSS | high polyreactivity
QVQLVESGGGLVQAGGSLRLSCSASGIIFVRNAMGWYRQAPGKERELVAAITWRGSTYYADSVKGRFTISRDNAKNTVYLQMNSLKPEDTAVYYCAAVKPHYTSFRDYYWGQGTQVTVSS | high polyreactivity
QVQLVESGGGLVQAGGSLRLSCSASGLIFGNYAMGWYRQAPGKERELVAAITSTGITYYADSVKGRFTISRDNAKNTVYLQMNSLKPEDTAVYYCAAASRFHPDRGGYWGQGTQVTVSS | low polyreactivity
QVQLVESGGGLVQAGGSLRLSCSASGLIFGNYGMGWYRQAPGKERELVAVITDDDSTTYADSVKGRFTISRDNAKNTFYLQMNSLKPEDTAVYYCNADNLLGRFDSWGQGTLVTVSS | low polyreactivity
QVQLVESGGGLVQAGGSLRLSCSASGLIFSTYAMGWYRQAPGKVRELVAAISGTGSTYYADSVKGRFTISRDNAKNTVYLQMNRLKPEDTSVYYCAAGATLWLLGLKMGYWGQGTQVTVSS | low polyreactivity
QVQLVESGGGLVQAGGSLRLSCSASGLIYYYYTMGWYRPPPGKERELVAVISSSGGSTYYADSVKGRFTISRDNAKNTVYLQMNSLKPEDTAVYYCAAVYHFQYGAYDYWGQGTQGTVSS | high polyreactivity
QVQLVESGGGLVQAGGSLRLSCSASGLTFTKYAMGWYRQAPGKEREFVATITSGGSTNYADSVKGRFTISRDNAKNTVYLQMNSLKPEDTAVYYCNRDNYKWPYWEFDYWGQGTQVTVSS | high polyreactivity
QVQLVESGGGLVQAGGSLRLSCSASGRIFPRNAMGWYRQAPGKERHLVAAISQSGTSTYYADSVKGRFTISRDNAQKTVYLQMNSLKREDTAVYYCAASGWDHVIVEYDYWGEGTQVTVSS | low polyreactivity
QVQLVESGGGLVQAGGSLRLSCSASGRIFPWNTMGWYRQAPGKERELVAGITSGGSTNYADSVKGRFTISRDNAKNTVYLQMNSLKPEDTAVYYCAARGYYWYISGVYEYEYWGQGTQVTVSS | low polyreactivity

Sequence | polyreactivity (PSR sort gate)
QVQLVESGGGLVQAGGSLRLSCSASGRTFDGYAMVWYRQAPGKEREMVASITRGGGSTYYADSVKGRFTISRDNAKNTVYLQMNSLKPEDTAVYYCATSDRQVKYDYWGQGTQVTVSS | low polyreactivity
QVQLVESGGGLVQAGGSLRLSCSASGRTFLYDMGWYTHATGKELELVAAISRGGSTSYADSVKGRFTISRDNAKNTVYLQMNSLKPEDTAVYYCATRGLVGYYSYYYWGQGTQVTVSS | high polyreactivity
QVQLVESGGGLVQAGGSLRLSCSASGRTFSKYAMAWYRQAPGKERELVAAISKRGGSTSYADSVKGRFTISRDNAKNTVYLQMNSLKREDTAVYYCAATYTYVVPEYDYWGHGTQVTVSS | high polyreactivity
QVQLVESGGGLVQAGGSLRLSCSASGRTFSWYAMGWYRQAPGKERELVAAISWSGGSTYYADSVKGRFTISRDNAKNTVYLQMNSLKPEDTAVYYCNAVGRPLRGYDYWGQGTQVTVSS | high polyreactivity
QVQLVESGGGLVQAGGSLRLSCSASGRTFTPYAMGWYRQAPGKEREFVAAISIVGRTKYADSVKGRFTISPDNAKNTFYFQMNSLKPEDTAVYYCNAQDSRDRKFYWGYTRGHWGQGTQVTVSS | low polyreactivity
QVQLVESGGGLVQAGGSLRLSCSASGRTFYGNAMGWYRQAPGKERELVAAISWSGGSTYYADSVKGRFPISRDNAKNTVYLQMISLKPEYTAVYYCNADYFAWDLMYYWGQGTQVTVSS | low polyreactivity
QVQLVESGGGLVQAGGSLRLSCSASGRTSDYYAMGWYRQAPGKERELVAAITSGGSTYYADSVKGRFTISRDNAKITVYFQMNSLKPEDTAVYYCAATWYWGWVFSYTSFDYWGLGTQVTVSS | low polyreactivity
QVQLVESGGGLVQAGGSLRLSCSASGSIFAIYTMGWYRQAPGTERELVAAISSRGDSTYYADSVKGRFTISRDNAKNTVYLQMNSLKPEDTAVYYCATRGDGVLGRRGYYWGQGTQVTVSS | high polyreactivity
QVQLVESGGGLVQAGGSLRLSCSASGSIFASNTMGWYRQAPGKERELVAGITKIGSSTYYADSVKGRFTISRDNAKNTFYLQMKSLKPEDTAVSYCKAYGPNIYSSRYDYWVQGTQVTVSS | low polyreactivity
QVQLVESGGGLVQAGGSLRLSCSASGSIFAWYGRGWYRQSPGKESELVAAITSTGSTYYADSVKGRFTISRDNAKNTVYLQMTSLKPEDTAVYYCNAYYVYLWRPGVYWGQGTQVTVSS | low polyreactivity
QVQLVESGGGLVQAGGSLRLSCSASGSIFSYYTMGWYRQAPGKERELVAAITGSGGRTYYADSVKGRFTISRDNAKNTVYLQMNSLKPEDTAVYYCNADRHYVPYYSRPRYIPYDYWGQGTQVTVSS | high polyreactivity
QVQLVESGGGLVQAGGSLRLSCSASGSILVRYAMGWYRQSPGKERELVAAITSGGSTYADSVKGRFTISRDNAKNTVYLQMNSLKPEDTAVYYCARDYFNREAFDYWGQGTQVTVSS | low polyreactivity
QVQLVESGGGLVQAGGSLRLSCSASGSTFEKNAMGWYRQAPGKERELVAAISNGVSTYYADSVKGRFTNSRDNAKNTVYLKINSLKPEDTAVYYCAAVLFFGAETVYYDKFDYWGQGTQVTVSS | low polyreactivity
QVQLVESGGGLVQAGGSLRLSCSASGSTFESNAMGWYRQAPGKERELVASISGSGGSTFYADSVKGRFTISRDNAKNTVYLQMNSLKPEDTAVYYCAAYKEPYYEEYGYWGQGTQVTVSS | low polyreactivity
QVQLVESGGGLVQAGGSLRLSCSASGSTFFSYAMGWYRQAPGKERELVATITSGGSTFADSVKWRFTISRDNAKNTVYLQMNSLKPEDTAVYYCNTDVVDCLFYHCECRFNYLGQGTQVTVSS | low polyreactivity
QVQLVESGGGLVQAGGSLRLSCSASGSTFGYYAMGWYRQAPGKERELVAAITRSGGSTFYADSVKGRFTISRDNAKNTVYLQMNSLKPEDTAVYYCAATYWPYRPGYYYWGQGTQVTVSS | high polyreactivity
QVQLVESGGGLVQAGGSLRLSCSASGSTFSAYVMGWYRQAPGKERKLVAAITRSGVSTYYADSVKGRFTISRDNAKNTVYLQMNSLKPEDTAVYYCNKRVGFLYKYDYWGQGTQVTVSS | high polyreactivity
QVQLVESGGGLVQAGGSLRLSCSASGSTFTAYAMGWSRQAPGKERELVATISDSGGSTYYADSVKGRFTISRDNAKNTVYLQMNSLKPEDTAVYYCAADVYSYFYQVVYTFDYWGQCTQVTVSS | low polyreactivity
QVQLVESGGGLVQAGGSLRLSCSASGSTFTWYAMGWYRQATGKERELVADISNGGGSTYYADSVKGRFTISRDNEKNTVYLQINSLKPEDTEVYYCAAESIPYYRYDYWGQGTQVTVSS | low polyreactivity
QVQLVESGGGLVQAGGSLRLSCSASGYISHYAMGWYRQAPGKERELVAAISRRGGSTYYADSVKGRFTISRDNAKNTVYLQMNSLKPEDTAVYYCNKATSYFTVRGYDYCGQGTQVTVSS | high polyreactivity
QVQLVESGGGLVQAGGSLRLSCSASGYTFPLYAMGWYRQAPGKERELVADINIGGASTYYADSVKGRFTISRDNAKNTVYLQMNSLKPEDTAVYYCAIQYYDGYFPTFEYDYWGQGTQVTVSS | low polyreactivity

From the nanobody polyreactivity screen of Harvey et al. (2022)
